Assay results: US20230151068A1

Each binder was assayed against biotinylated His-Avi-TEAD (194-411) (UniProt P28347) (assay: SPR, steady-state response against peptide concentration (M, log axis) with fitted curve).

EC50 (read off the curve) | Binder
40 nM | GSPDEYIERARRCCRRGDIQCCLRYFEESGDPNVMLICLFCP (designed binder) [peptide of SEQ ID NO: 8]
6 nM | GSPDEYIERAKECCKKQDIQCCLRIFDESKDPNVMLICLFCP (designed binder) [peptide of SEQ ID NO: 11]

Each binder was assayed against biotinylated His-Avi-TEAD (194-411) (UniProt P28347) (assay: SPR (Biacore T100, 25 C), captured biotinylated TEAD, peptide as analyte, kinetics 1:1 binding).

koff | kon | Binder
0.117 s⁻¹ | 3.1e+07 M⁻¹ s⁻¹ | GSPDEYIERAKECCKKQDIQCCLRIFDESKDPNVMLICLFCP (designed binder) [peptide of SEQ ID NO: 11]

The binders below were run against biotinylated His-Avi-TEAD (194-411) (UniProt P28347) (assay: SPR (Biacore T100, 25 C), captured biotinylated TEAD, peptide as analyte, steady-state).

Kd | Binder
39 nM | GSPDEYIERARRCCRRGDIQCCLRYFEESGDPNVMLICLFCP (designed binder) [peptide of SEQ ID NO: 8]
6.3 nM | GSPDEYIERAKECCKKQDIQCCLRIFDESKDPNVMLICLFCP (designed binder) [peptide of SEQ ID NO: 11]

Each binder was assayed against biotinylated His-Avi-TEAD (194-411) (UniProt P28347) (assay: SPR, single cycle kinetics, biotinylated TEAD captured on the chip, peptide injected at 0.044, 0.133, 0.4, 1.2, 3.6 nM).

Kd | Binder
0.372 nM | GSPDEYIERAKECCKKQDIQCCLRIFDESGDPNVMLICLFCW (designed binder) [peptide of SEQ ID NO: 10]

The binders below were run against biotinylated His-Avi-TEAD (194-411) (UniProt P28347) (assay: SPR (Biacore T100, 25 C), captured biotinylated TEAD, peptide as analyte, single cycle kinetics).

Kd | koff | kon | Binder
0.372 nM | 0.00767 s⁻¹ | 2.06e+07 M⁻¹ s⁻¹ | GSPDEYIERAKECCKKQDIQCCLRIFDESGDPNVMLICLFCW (designed binder) [peptide of SEQ ID NO: 10]

The binders below were run against biotinylated His-Avi-TEAD (194-411) (UniProt P28347) (assay: SSM screen, enrichment after two rounds of sorting).

enrichment score | Binder
-1.07 | GSPKEYIERAKECCKKGDIQCCLRYFEESGDPNVMLICLFCP (designed binder) [D02K variant of SEQ ID NO: 1]
-1.15 | GSPDEYIGRAKECCKKGDIQCCLRYFEESGDPNVMLICLFCP (designed binder) [E06G variant of SEQ ID NO: 1]
-4.11 | GSPDEYIERGKECCKKGDIQCCLRYFEESGDPNVMLICLFCP (designed binder) [A08G variant of SEQ ID NO: 1]
-0.88 | GSHDEYIERAKECCKKGDIQCCLRYFEESGDPNVMLICLFCP (designed binder) [P01H variant of SEQ ID NO: 1]
-0.44 | GSPDEYIERAKGCCKKGDIQCCLRYFEESGDPNVMLICLFCP (designed binder) [E10G variant of SEQ ID NO: 1]
3.95 | GSPDEYIERAEECCKKGDIQCCLRYFEESGDPNVMLICLFCP (designed binder) [K09E variant of SEQ ID NO: 1]
-0.16 | GSPDEYIEEAKECCKKGDIQCCLRYFEESGDPNVMLICLFCP (designed binder) [R07E variant of SEQ ID NO: 1]
-0.58 | GSPDEYIERADECCKKGDIQCCLRYFEESGDPNVMLICLFCP (designed binder) [K09D variant of SEQ ID NO: 1]
-0.65 | GSDDEYIERAKECCKKGDIQCCLRYFEESGDPNVMLICLFCP (designed binder) [P01D variant of SEQ ID NO: 1]
-0.89 | GSPDEYIERAKDCCKKGDIQCCLRYFEESGDPNVMLICLFCP (designed binder) [E10D variant of SEQ ID NO: 1]
1.16 | GSPEEYIERAKECCKKGDIQCCLRYFEESGDPNVMLICLFCP (designed binder) [D02E variant of SEQ ID NO: 1]
-2.21 | GSPDEGIERAKECCKKGDIQCCLRYFEESGDPNVMLICLFCP (designed binder) [Y04G variant of SEQ ID NO: 1]
-1.9 | GSPDEHIERAKECCKKGDIQCCLRYFEESGDPNVMLICLFCP (designed binder) [Y04H variant of SEQ ID NO: 1]
-3.84 | GSPDEYIERAKECCKKGYIQCCLRYFEESGDPNVMLICLFCP (designed binder) [D16Y variant of SEQ ID NO: 1]
-1.05 | GSPHEYIERAKECCKKGDIQCCLRYFEESGDPNVMLICLFCP (designed binder) [D02H variant of SEQ ID NO: 1]
-0.5 | GSPDKYIERAKECCKKGDIQCCLRYFEESGDPNVMLICLFCP (designed binder) [E03K variant of SEQ ID NO: 1]
-0.62 | GSPDGYIERAKECCKKGDIQCCLRYFEESGDPNVMLICLFCP (designed binder) [E03G variant of SEQ ID NO: 1]
-3.97 | GSPDEYGERAKECCKKGDIQCCLRYFEESGDPNVMLICLFCP (designed binder) [I05G variant of SEQ ID NO: 1]
1.31 | GSPDEYIEGAKECCKKGDIQCCLRYFEESGDPNVMLICLFCP (designed binder) [R07G variant of SEQ ID NO: 1]
-0.29 | GSKDEYIERAKECCKKGDIQCCLRYFEESGDPNVMLICLFCP (designed binder) [P01K variant of SEQ ID NO: 1]
-4.62 | GSPDEYIERAKECCKKGPIQCCLRYFEESGDPNVMLICLFCP (designed binder) [D16P variant of SEQ ID NO: 1]
-0.32 | GSPGEYIERAKECCKKGDIQCCLRYFEESGDPNVMLICLFCP (designed binder) [D02G variant of SEQ ID NO: 1]
-3.47 | GSPDEYDERAKECCKKGDIQCCLRYFEESGDPNVMLICLFCP (designed binder) [I05D variant of SEQ ID NO: 1]
-1.23 | GSPDEYEERAKECCKKGDIQCCLRYFEESGDPNVMLICLFCP (designed binder) [I05E variant of SEQ ID NO: 1]
-2.41 | GSPDEYIERAKECCKKGDPQCCLRYFEESGDPNVMLICLFCP (designed binder) [I17P variant of SEQ ID NO: 1]
-0.68 | GSPDEYIERAKECCKYGDIQCCLRYFEESGDPNVMLICLFCP (designed binder) [K14Y variant of SEQ ID NO: 1]

enrichment score | Binder
-1.57 | GSPDEYIHRAKECCKKGDIQCCLRYFEESGDPNVMLICLFCP (designed binder) [E06H variant of SEQ ID NO: 1]
-8.35 | GSPDEYIERAKECCKKGDIYCCLRYFEESGDPNVMLICLFCP (designed binder) [Q18Y variant of SEQ ID NO: 1]
-2.66 | GSPDEYIEREKECCKKGDIQCCLRYFEESGDPNVMLICLFCP (designed binder) [A08E variant of SEQ ID NO: 1]
1.7 | GSGDEYIERAKECCKKGDIQCCLRYFEESGDPNVMLICLFCP (designed binder) [P01G variant of SEQ ID NO: 1]
-1.25 | GSPDEYIERAKECCKKPDIQCCLRYFEESGDPNVMLICLFCP (designed binder) [G15P variant of SEQ ID NO: 1]
-1.29 | GSPDEYIERAKECCYKGDIQCCLRYFEESGDPNVMLICLFCP (designed binder) [K13Y variant of SEQ ID NO: 1]
-6.52 | GSPDEEIERAKECCKKGDIQCCLRYFEESGDPNVMLICLFCP (designed binder) [Y04E variant of SEQ ID NO: 1]
-1.5 | GSPDEYIERAHECCKKGDIQCCLRYFEESGDPNVMLICLFCP (designed binder) [K09H variant of SEQ ID NO: 1]
-2.99 | GSPDEYHERAKECCKKGDIQCCLRYFEESGDPNVMLICLFCP (designed binder) [I05H variant of SEQ ID NO: 1]
-1.58 | GSPDEKIERAKECCKKGDIQCCLRYFEESGDPNVMLICLFCP (designed binder) [Y04K variant of SEQ ID NO: 1]
-9.48 | GSPDEYIERAKECCKKGDYQCCLRYFEESGDPNVMLICLFCP (designed binder) [I17Y variant of SEQ ID NO: 1]
-1.79 | GSPDEDIERAKECCKKGDIQCCLRYFEESGDPNVMLICLFCP (designed binder) [Y04D variant of SEQ ID NO: 1]
-7.27 | GSPDEYIERHKECCKKGDIQCCLRYFEESGDPNVMLICLFCP (designed binder) [A08H variant of SEQ ID NO: 1]
-0.6 | GSPDEYIDRAKECCKKGDIQCCLRYFEESGDPNVMLICLFCP (designed binder) [E06D variant of SEQ ID NO: 1]
-0.48 | GSPDEYIERAGECCKKGDIQCCLRYFEESGDPNVMLICLFCP (designed binder) [K09G variant of SEQ ID NO: 1]
-4.17 | GSPDEYIERDKECCKKGDIQCCLRYFEESGDPNVMLICLFCP (designed binder) [A08D variant of SEQ ID NO: 1]
-0.31 | GSPDHYIERAKECCKKGDIQCCLRYFEESGDPNVMLICLFCP (designed binder) [E03H variant of SEQ ID NO: 1]
0.8 | GSPDDYIERAKECCKKGDIQCCLRYFEESGDPNVMLICLFCP (designed binder) [E03D variant of SEQ ID NO: 1]
0.69 | GSPDEYIERAKECCKKGDIPCCLRYFEESGDPNVMLICLFCP (designed binder) [Q18P variant of SEQ ID NO: 1]
-0.32 | GSPDEYIEHAKECCKKGDIQCCLRYFEESGDPNVMLICLFCP (designed binder) [R07H variant of SEQ ID NO: 1]
-1.14 | GSPDEYIERAKECCKKYDIQCCLRYFEESGDPNVMLICLFCP (designed binder) [G15Y variant of SEQ ID NO: 1]
-2.25 | GSPDEYIEDAKECCKKGDIQCCLRYFEESGDPNVMLICLFCP (designed binder) [R07D variant of SEQ ID NO: 1]
-10.6 | GSPDEYIERAKECCKPGDIQCCLRYFEESGDPNVMLICLFCP (designed binder) [K14P variant of SEQ ID NO: 1]
1.12 | GSEDEYIERAKECCKKGDIQCCLRYFEESGDPNVMLICLFCP (designed binder) [P01E variant of SEQ ID NO: 1]
-1.97 | GSPDEYIERAKHCCKKGDIQCCLRYFEESGDPNVMLICLFCP (designed binder) [E10H variant of SEQ ID NO: 1]
-10.4 | GSPDEYIERAKECCPKGDIQCCLRYFEESGDPNVMLICLFCP (designed binder) [K13P variant of SEQ ID NO: 1]
